Experiments:
calmodulin [1] = target: T1, calmodulin (Homo sapiens, UniProt P0DP23); experiment: NMR relaxation: backbone dynamics (order parameters) of calmodulin in complex with target domains; details: average ± standard deviation, 35° C.; for <O^2CαCO>: CO—Cα bond vectors of calmodulin in complex; for <O^2NH>: N—H bond vectors of calmodulin in complex
Source text: The sub-nanosecond (sub-ns) dynamics of the polypeptide backbone of calmodulin in the six complexes were probed using NMR relaxation techniques. The degree of spatial restriction of each motional probe was assigned a number between 0, corresponding to complete isotropic disorder, and 1, corresponding to a fixed orientation in the molecular frame. This parameter is the squared generalized order parameter (O^2) as it applies to the amide N—H bond (O^2NH), the Cα—C′ bond (O^2cαcO) and the methyl symmetry axis (O^2axis). O^2NH parameters at amide nitrogen sites were obtained from measurements of ^15N dipolar relaxation. Farrow, N. A. et al. Backbone dynamics of a free and a phosphopeptide-complexed Src homology-2 domain studied by ^15N NMR relaxation. Biochemistry 33, 5984-6003 (1994). O^2cαcO parameters were obtained from measurement of transverse cross-correlated relaxation between ^13CO chemical shift anisotropy and the ^13CO—^13Cα dipolar interactions. Wang, T., Cai, S. & Zuiderweg, E. R. Temperature dependence of anisotropic protein backbone dynamics. J. Am. Chem. Soc. […] The motion of methyl groups (O^2axis) of calmodulin side chains were characterized using ^2H spin relaxation methods. Muhandiram, D. R. et al. Measurement of H-2 T-1 and T-1p relaxation-times in uniformly C-13-Labeled and fractionally H-2-labeled proteins in solution. J. Am. Chem. Soc. 117, 11536-11544 (1995).
O^2axis parameters were determined from T1 and T1p deuterium relaxation (Muhandiram, D. R. et al. Measurement of H-2 T-1 and T-1p relaxation-times in uniformly C-13-Labeled and fractionally H-2-labeled proteins in solution. J. Am. Chem. Soc. 117, 11536-11544 (1995)) measured at two magnetic fields. Rotational correlation times and O^2NH were determined from ^15N relaxation (Farrow, N. A. et al. Backbone dynamics of a free and a phosphopeptide-complexed Src homology-2 domain studied by ^15N NMR relaxation. Biochemistry 33, 5984-6003 (1994)) obtained at two magnetic fields. O^2CαCO parameters were determined by transverse cross-correlated relaxation. Wang, T., Cai, S. & Zuiderweg, E. R. Temperature dependence of anisotropic protein backbone dynamics. J. Am. Chem. Soc. […] All measurements were made at 35° C. Model-free parameters (Lipari, G. & Szabo, A. Model-free approach to the interpretation of nuclear magnetic-resonance relaxation in macromolecules. 1. Theory and range of validity. J. Am. Chem. Soc. 104, 4546-4559 (1982)) were determined using a grid search approach (Dellwo, M J. & Wand, A. J. Model-independent and model-dependent analysis of the global and internal dynamics of cyclosporine-A. J. Am. Chem. Soc. 111, 4571-4578 (1989)) using a quadrupolar coupling constant of 167 kHz, an effective N—H bond length of 1.04 Å and ^15N tensor breadth of 170 p.p.m. […] The model-free parameters have been deposited in the Biological Magnetic Resonance Data Bank (“BioMagResBank,” Eldon L. Ulrich; Hideo Akutsu; Jurgen F. Doreleijers; Yoko Harano; Yannis E. Ioannidis; Jundong Lin; Miron Livny; Steve Mading; Dimitri Maziuk; Zachary Miller; Eiichi Nakatani; Christopher F. Schulte; David E. Tolmie; R. Kent Wenger; Hongyang Yao; John L. Markley; Nucleic Acids Research 36, D402-D408 (2007) doi: 10.1093/nar/gkm957).

calmodulin [2] = target: T1, calmodulin; experiment: Uncalibrated estimate of conformational entropy of binding from methyl group dynamics of CaM and target domain; design: made in house; details: for Δ O^2axis Target: O^2axis of 0.101 assumed for the free target domain; for Δ O^2axis CaM: free CaM is the reference state; for ΔSfast^conf: harmonic oscillator plus fast minor rotamer states; for ΔStotal^conf: includes classical term from slow-exchange minor cross peaks; for Normalized Δ O^2axis: normalized to number of amino acids in calmodulin (148) and target domain
Source text: Using deuterium NMR relaxation methods, fast motion of the methyl-bearing side-chains of the target domains in the six CaM complexes were examined. Muhandiram, D. R. et al., Measurement of H-2 T-1 and T-1p relaxation-times in uniformly C-13-Labeled and fractionally H-2-labeled proteins in solution. J. Am. Chem. Soc. 117, 11536-11544 (1995).
Initially estimates of the conformational entropy of the target domains to the free energy of binding to CaM was obtained using the simple harmonic oscillator model. Li, Z., Raychaudhuri, S., & Wand, A. J., Insights into the local residual entropy of proteins provided by NMR relaxation. Prot. Sci. 5, 2647-2650 (1996). It is assumed that the dynamics of the free unstructured target domain are uniform and correspond to an O^2axis of 0.1. […] This was estimated using a previously described model. Lee, A. L. et al., Temperature dependence of the internal dynamics of a calmodulin peptide complex. Biochemistry 41, 13814-13825 (2002). […] Such heterogeneity would correspond to conformational entropy contributed by states that are not averaged on the NMR chemical shift timescale.
To compare dynamics in the various complexes, we employ a normalization procedure to account for variation in the number of methyl sites in CaM whose motion could be quantified and to account for the fact that, although fully resolved, the number of residues in the target domains ranges between 20 and 26. A simple average was employed. The apparent change in conformational entropy was then calculated as above. To complete the solution of equation (5), the binding entropies obtained by isothermal titration calorimetry were used and calculated the change in solvent entropy using the known structures of free CaM and the five complexes. Kainosho, M. et al., Optimal isotope labelling for NMR protein structure determinations. Nature 440, 52-57 (2006); Aoyagi, M et al., Structural basis for endothelial nitric oxide synthase binding to calmodulin. The EMBO journal 22, 766-775 (2003); Meador, W. E., Means, A. R., & Quiocho, F. A., Target enzyme recognition by calmodulin: 2.4 A structure of a calmodulin-peptide complex. […] Nat. Struct. Biol. 6, 819-824 (1999); Valentine, K. G. et al., The crystal structure and internal dynamics of calmodulin complexed with the calmodulin binding domain of neuronal nitric oxide synthase. Biochemistry, submitted (2007). The empirically determined relationship between changes in accessible surface area and the entropy of solvent is employed. Hilser, V. J. et al., A statistical thermodynamic model of the protein ensemble. Chem. Rev. 106, 1545-1558 (2006). The change in solvent entropy by assuming an extended fully solvated structure for the dissociated domains (see Methods) was calculated. […] Gaboriaud, C. et al., Hydrophobic cluster analysis: an efficient new way to compare and analyse amino acid sequences. FEBS letters 224, 149-155 (1987). […] The surface area of a sphere of equivalent volume of the side-chains in the putative hydrophobic cluster was used as a basis for the solvent entropy calculation. A further correction for the reduction in conformational entropy of the compact free CaMKKα(p) target domain was also applied (see Methods). […] Marlow, M. S. & Wand, A. J., Conformational dynamics of calmodulin in complex with the calmodulin-dependent kinase kinase alpha calmodulin-binding domain. Biochemistry 45, 8732-8741 (2006).

Row | Substance | <O^2CαCO> (calmodulin [1]) | <O^2NH> (calmodulin [1]) | Δ O^2axis Target (calmodulin [2]) | Δ O^2axis CaM (calmodulin [2]) | ΔSfast^conf (calmodulin [2]) | ΔStotal^conf (calmodulin [2]) | Normalized Δ O^2axis (calmodulin [2])
1 | AKSKWKQAFNATAVVRHMRKLQ (listed as Homo sapiens) [CaMKI(p)] | 0.88 ± 0.14 | 0.94 ± 0.08 | 0.555 | 0.107 | 60.2916 kcal/mol | 63.1334 kcal/mol | 28.046
2 | RKKTFKEVANAVKISASLMG [eNOS(p)] | – | – | 0.567 | 0.081 | 50.278 kcal/mol | 53.5045 kcal/mol | 23.328

Now from value to substance:

Row | <O^2CαCO> (calmodulin [1]) | <O^2NH> (calmodulin [1]) | Δ O^2axis Target (calmodulin [2]) | Δ O^2axis CaM (calmodulin [2]) | ΔSfast^conf (calmodulin [2]) | ΔStotal^conf (calmodulin [2]) | Normalized Δ O^2axis (calmodulin [2]) | Substance
3 | 0.79 ± 0.21 | 0.93 ± 0.08 | 0.329 | 0.096 | 48.2921 kcal/mol | 49.7978 kcal/mol | 22.632 | (COOH-FPNGFSRKRLMSKVLIVTTWSPLL [CaMKKα(p)]
4 | 0.85 ± 0.16 | 0.92 ± 0.08 | 0.528 | 0.049 | 41.5545 kcal/mol | 46.7409 kcal/mol | 19.396 | KRRAIGFKKLAEAVKFSAKLMGQ [nNOS(p)]
5 | – | 0.92 ± 0.06 | – | – | – | – | – | QTEKMWQRLKGILRSLVKQ [PDE(p)]
